{"source": "patent US12091446", "key": {"[1]": {"biological_target": "SARS-COV-2 RBD Beta variant (SARS-CoV-2)"}, "[2]": {"biological_target": "SARS-COV-2 RBD Lambda variant (SARS-CoV-2)"}, "[3]": {"biological_target": "SARS-COV-2 RBD Gamma variant (SARS-CoV-2)"}, "[4]": {"biological_target": "SARS-COV-2 RBD Mu variant (SARS-CoV-2)"}}}
{"substance": "huACE2-Fc (from UniProt Q9BYF1) (Fc fusion)", "values": [{"measurement": "Kd", "setting": "[1]", "value": 44.4, "unit": "nM"}, {"measurement": "Kd", "setting": "[2]", "value": 5.34, "unit": "nM"}, {"measurement": "Kd", "setting": "[3]", "value": 3.6, "unit": "nM"}, {"measurement": "Kd", "setting": "[4]", "value": 12.9, "unit": "nM"}]}
